Among the data in paper PMC9127584 (2022) are Kd values, retold here.

Values joined by “and” are separate entries in the source; they are usually repeats but may differ in a detail not shown here. Equal values may be shown once.

Test [1] addresses ANAC013 254-274 (Arabidopsis thaliana) (UniProt F4IED2). Briefly: ITC. To be noted: cited from earlier work.
Test [2] deals with DREB2A 243-272 (Arabidopsis thaliana) (UniProt O82132). Briefly: ITC. To be noted: cited from earlier work.
Test [3] has as its target T1, DREB2A (Arabidopsis thaliana (Mouse-ear cress), UniProt O82132).
T1 chain: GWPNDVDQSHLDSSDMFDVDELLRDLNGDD
Briefly: ITC 25 C.

Test [4] concerns the target T2, ANAC013 (Arabidopsis thaliana (Mouse-ear cress), UniProt F4IED2).
T2 chain: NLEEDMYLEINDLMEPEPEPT
Briefly: ITC 25 C.

For test [5], the target named is T3, DREB2A 243-272 (Arabidopsis thaliana, UniProt O82132).
T3 chain: T1 chain
Kind of test: ITC.

In test [6] the target is T4, ANAC013 254-274 (Arabidopsis thaliana, UniProt F4IED2).
T4 chain: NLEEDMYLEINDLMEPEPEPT
Kind of test: ITC.

Regarding RCD1 499-572 (from UniProt Q8RY59), the Kd was 9 nM in test [1] and 16 nM in test [2].

On to RCD1 RST (from UniProt Q8RY59), for which the Kd in test [2] was 16 nM.

B1: AtRCD1_RST (protein)
chain: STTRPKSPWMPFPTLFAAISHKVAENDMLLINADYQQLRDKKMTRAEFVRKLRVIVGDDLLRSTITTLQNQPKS
For the molecule B1, the Kd turned out to be 16 nM in test [3] and 9 nM in test [4].

B2: AtTAF4_RST (protein)
chain: NPINRNPKQVPFAALLPTLMNQLDKDRALQLRTLYARLKKNEIPKEGFTRHMKDIVGDQMLRMAVSKLQQVNY
In the case of B2, the Kd in test [3] worked out at 740 nM; in test [4], 1080 nM.

B3: HsTAF4_TAFH (protein)
chain: TSSAATETMENVKKCKNFLSTLIKLASSGKQSTETAANVKELVQNLLDGKIEAEDFTSRLYRELNSSPQPYLVPFLKRSLPALRQLTPDSAAFIQQS
In test [3], B3 had a Kd of 110 nM.

B4: AtTAF4 180-254 (protein)
chain: NVNPINRNPKQVPFAALLPTLMNQLDKDRALQLRTLYARLKKNEIPKEGFTRHMKDIVGDQMLRMAVSKLQQVNY
For B4, the Kd in test [5] was 740 nM and 1050 nM; in test [6] it was 1080 nM.
